Measured values published in the supplement of paper PMC10567573.
± gives the standard deviation.

Assay: protein stability index of a GFP-peptide fusion (GPS, HEK-293T) (PSI 1-6); higher = more stable
[1] = treatment: DMSO, c terminus: a fixed tail appended
[2] = treatment: MLN4924 1 uM, 8 h, c terminus: a fixed tail appended
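Further: 24-mer peptide tiles fused after GFP, lentivirally expressed, FACS-sorted into six equal bins by GFP/DsRed ratio, decoded by Illumina sequencing, PSI is the read-weighted mean bin number.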

Sequence | protein stability index [1] | protein stability index [2] | protein stability index (treatment: DMSO, c terminus: native) | protein stability index (treatment: MLN4924 1 uM, 8 h, c terminus: native)
LEVNKPKNRYANVIAYDHSRVLLS [PTPRD] | 2.54 ± 0.31 | 2.71 ± 0.21 | – | –
LLLHRGAGKEAMTSDGYTALHLAA [RIPK4] | 2.33 ± 0.25 | 2.22 ± 0.48 | – | –
RERDSVPKPSVLFLHPDLGVGGAE [ALG2] | 4.08 ± 0.41 | 4.21 ± 0.16 | – | –
PASDLEAALEAAGEGLNVIQQTTR [NANOGP8] | 4.93 ± 0.17 | 4.95 ± 0.44 | – | –
MRQRISRVEESALRALREKLFAHS [PPEF2] | 2.72 ± 0.24 | 2.71 ± 0.33 | – | –
RFKDKSSEEAVREVHRLIEGKAPI [TPPP] | 4.6 ± 0.15 | 4.58 ± 0.18 | – | –
GDFAWERVRGLGLPKLYLPTGPRR [CDKN1A] | 2.98 ± 0.32 | 3.32 ± 0.4 | – | –
SEDRTIRVWLKRDSGQYWPSIYHT [WDFY1] | 2.15 ± 0.19 | 2.25 ± 0.31 | – | –
VGHARGLHAWQINWPARQRGTHAV [SPSB4] | 2.96 ± 0.43 | 2.87 ± 0.24 | – | –
PALHPAHAPQISYTGPSSSGRFAG [NCK2] | 4.02 ± 0.15 | 4.15 ± 0.12 | – | –
LHEVLTEVVPIHGRGNFPTLEITL [TENT5C] | 2.73 ± 0.56 | 2.53 ± 0.53 | – | –
SRDGATGHVLLTDSEFSMQEPMVP [PPFIA4] | 4.6 ± 0.27 | 4.6 ± 0.29 | – | –
AEPGFEPADCKRKEEAGAPGGGAG [CEBPB] | 5.48 ± 0.47 | 5.56 ± 0.15 | – | –
LPHPKSMLQATAEANNLAAAASAK [ATL3] | 4.86 ± 0.27 | 5.07 ± 0.19 | – | –
LHPVQKVILNYPSPWDQEERPAQR [TRAF3IP2] | 3.4 ± 0.37 | 3.66 ± 0.34 | – | –
GKSFNRHCNLIRHQKIHTVAELV [ZSCAN9] | – | – | 2.08 ± 0.28 | 2.05 ± 0.33
PQGLFVEALSVPLSLCVSSHLALP [CLPTM1] | 2.96 ± 0.59 | 2.91 ± 0.41 | – | –
WMKHNVADSQITTIGNLVPQKTYS [PTPRD] | 3.29 ± 0.55 | 3.17 ± 0.29 | – | –
SRWVRDPRYREDPCKQCKKKYVKG [FBXO34] | 3.59 ± 0.44 | 3.92 ± 0.14 | – | –
ELRNVQDVVEDYKKRYEEEINKRT [KRT71] | 3.62 ± 0.35 | 4.45 ± 0.24 | – | –
SVILRRYFLELTQSFIIPLERYVA [DENND6A] | 2.33 ± 0.63 | 2.88 ± 0.75 | – | –
SFEDDCSQSLCLNKPTMSFKDYIQ [ETS2] | 3.52 ± 0.15 | 3.67 ± 0.28 | – | –
RGDLWISWEEGMKVFEELLLDADW [CRY1] | 2.31 ± 0.41 | 2.4 ± 0.29 | – | –

Sequence | protein stability index [1] | protein stability index [2] | protein stability index (treatment: DMSO, c terminus: native) | protein stability index (treatment: MLN4924 1 uM, 8 h, c terminus: native)
SSASYEKENEMMKSHVMDQAINNA [IKZF1] | 4.78 ± 0.19 | 4.74 ± 0.28 | – | –
GTQFTFDQDPSVLYFSIHRYEQGR [HDAC6] | 2.31 ± 0.51 | 2.52 ± 0.34 | – | –
MVEADRPGKLFIGGLNTETNEKAL [RBMX] | 4.75 ± 0.096 | 4.39 ± 0.48 | – | –
NGVLGLSRLLFFLLGFLRIRVRGQ [LPCAT4] | 2.2 ± 0.34 | 2.44 ± 0.25 | – | –
ERPMYGRDSAYQSITHYRPVSASR [EMD] | 3.81 ± 0.26 | 3.76 ± 0.28 | – | –
QQQRQRPPRPPPRGTPPRRHSFRK [N4BP2L1] | 4.44 ± 0.16 | 4.75 ± 0.26 | – | –
LLTGETEADPEMIKRAEDYGPVEV [CLPTM1] | 5.02 ± 0.3 | 5.14 ± 0.11 | – | –
FLPHHIMVKIFRLLPTKSLVALKC [FBXO34] | 2.76 ± 0.39 | 2.29 ± 0.74 | – | –
SGKRLSGVSSVDSAFSSRGSLSLS [RIPK4] | 3.47 ± 0.62 | 3.57 ± 0.41 | – | –
EEFILLSQGEVEKLIKCDEIQVDS [KLHL12] | 4.49 ± 0.58 | 4.45 ± 0.48 | – | –
QKCHSIGETDEVTKTEDRELVLRK [ZSCAN9] | 5.32 ± 0.3 | 5.37 ± 0.2 | – | –
SLLTNWPSVPPTIKEEENSEEELA [MYBL2] | 5.41 ± 0.26 | 5.28 ± 0.28 | – | –
DVHHGQGTQFTFDQDPSVLYFSIH [HDAC6] | 2.04 ± 0.34 | 2.02 ± 0.34 | – | –
CFRMQINHAIDIICGFLKERCFRG [OAS1] | 2.44 ± 0.66 | 2.61 ± 0.36 | – | –
TSLSLAQVGAKGDTANEIGQVLHF [SERPINB5] | 3.06 ± 0.28 | 3.18 ± 0.37 | – | –
ALQVPRGKEDSTLQLLREENRALQ [CBY2] | 4.13 ± 0.25 | 4.23 ± 0.084 | – | –
ELRDSSAYHVPNRTLASGRLLSYR [DNAAF3] | 3.04 ± 0.11 | 3.25 ± 0.096 | – | –
ASASCSHWRECLFYPALWPQLRIC [FBXO33] | 2.44 ± 0.53 | 2.23 ± 0.39 | – | –
PTFRFLTKMWHPNIYENGDVCISI [UBE2R2] | 3.01 ± 0.68 | 3.15 ± 0.71 | – | –
GGSGGGGGGDEDGSLGSRAEPAPR [SMAD6] | 5.38 ± 0.21 | 5.41 ± 0.13 | – | –
FHPDPRQKALYRRLATVHMSRMIN [CLPTM1] | 2.58 ± 0.55 | 2.39 ± 0.25 | – | –
ILWDTLLRLCAWGLASWPLARGIH [POMT2] | 2.823 ± 0.003 | 3.27 ± 1.2 | – | –
KEQILEFLVLEQFLTILPEELQSW [ZNF232] | 3.21 ± 0.27 | 2.85 ± 0.62 | – | –

Sequence | protein stability index [1] | protein stability index [2] | protein stability index (treatment: DMSO, c terminus: native) | protein stability index (treatment: MLN4924 1 uM, 8 h, c terminus: native)
EKRNAGNAVRSAMKSEEQKIKDAR [KMT5A] | 4.72 ± 0.15 | 5.09 ± 0.21 | – | –
EPCGPGKSKLTYMCRVDLRGHMPE [DLC1] | 2.45 ± 0.29 | 2.11 ± 0.52 | – | –
LIGDLIGHSSSVEMFLYFEDHGLV [WDR41] | 2.57 ± 0.51 | 2.83 ± 0.81 | – | –
TCFDQRKRANAAFLIGAYAVIYLK [CDC14A] | 2.05 ± 0.31 | 2.13 ± 0.41 | – | –
SREITTLANNQCMATESVDHELGR [EHMT1] | 4.8 ± 0.28 | 4.84 ± 0.26 | – | –
DIQIVERKKSADVLALADEAGYYF [ADAMTSL2] | 3.08 ± 0.23 | 3.39 ± 0.2 | – | –
LGLKDKEGYTSFWNDCISSGLRGG [GOLPH3L] | 2.65 ± 0.59 | 2.83 ± 0.31 | – | –
PAPSRMQMPQGNPLLLSHTLQELL [SNX8] | 3.08 ± 0.21 | 3.1 ± 0.22 | – | –
LMCFDPDTDKWIQKAPMTTVRGLH [KLHL13] | 2.57 ± 0.18 | 2.64 ± 0.23 | – | –
AALRLHRLLRDSEAFCHANCSGPA [P3H4] | 2.1 ± 0.1 | 2.27 ± 0.27 | – | –
REVAKELGIPYYETSVVAQFGIKD [RHOBTB2] | 3.2 ± 0.43 | 3.39 ± 0.27 | – | –
SPYFHDQVLLKGMTSISLPSVMDP [ZBTB22] | 3.03 ± 0.3 | 3.12 ± 0.28 | – | –
LGNEYPKLHYPELYVLKGGYKEFF [CDC25A] | 2.02 ± 0.23 | 2.01 ± 0.39 | – | –
AVNNGDFEAYAKICDPGLTSFEPE [CAMK2B] | 4.35 ± 0.27 | 4.38 ± 0.14 | – | –
NEVLSSDILPRWAIIGWLLTTCTS [INTS3] | 2.99 ± 0.82 | 2.91 ± 0.49 | – | –
GEEQLKTHKKCKEEVVSTLDAVQV [FCHO1] | 4.13 ± 0.38 | 4.12 ± 0.19 | – | –
AIIASLTFLYTLLREVIHPLATSH [STEAP1] | 3.25 ± 0.34 | 2.89 ± 0.39 | – | –
FIVLFLLWPFAWLQVAGLSEEQLQ [LPCAT4] | 2.65 ± 0.13 | 3.05 ± 0.59 | – | –
RYTFAPSVSLNKTARPFGAPPPAD [PDLIM7] | 3.34 ± 0.2 | 3.55 ± 0.21 | – | –
ESAQATFQAHRDKYEKLRGDVAIK [ARFIP2] | 4.37 ± 0.16 | 4.62 ± 0.18 | – | –
IHCENCKTTLGWKYEQAFESSQKY [YPEL3] | 2.36 ± 0.38 | 2.62 ± 0.62 | – | –
LLFVRGAGNCPECGTPLRKSNFRV [MNAT1] | 2.2 ± 0.19 | 2.6 ± 0.32 | – | –
TAGLKIFEPPAPGEGNSSQNSRNK [TNFSF13B] | 5.2 ± 0.22 | 5.24 ± 0.15 | – | –

Sequence | protein stability index [1] | protein stability index [2] | protein stability index (treatment: DMSO, c terminus: native) | protein stability index (treatment: MLN4924 1 uM, 8 h, c terminus: native)
PIDVVEKYDPKTQEWSFLPSITRK [KLHL12] | 4.56 ± 0.27 | 4.64 ± 0.33 | – | –
DLLNVCMRHVEKMCKADLSRNFIE [TRIM29] | 3.09 ± 0.21 | 2.87 ± 0.28 | – | –
PQSSKSTVVKSLIDNSSEIEDEDQ [FAN1] | 5.65 ± 0.14 | 5.6 ± 0.25 | – | –
SSSSKLSRSPLKIVKKPKSMQCKV [EPB41L3] | 3.54 ± 0.11 | 3.41 ± 0.52 | – | –
EEEEGTMMKAKGDLEMKEEEEISE [ZBED2] | – | 5.53 ± 0.53 | – | –
SLTAAETLALQGTQGQEKMMMMGP [ZNF232] | 4.01 ± 0.18 | 4.14 ± 0.2 | – | –
PSQDERMRSPQNLHSQEDDDSSSE [NOL4L] | 5.62 ± 0.14 | 5.56 ± 0.21 | – | –
HFPYDLHLRSQSLTMQDELNAVFH [NEUROD6] | 2.81 ± 0.19 | 2.92 ± 0.27 | – | –
ADAISENYRIMSYFKEAELKDLLL [WEE1] | 2.61 ± 0.22 | 2.72 ± 0.54 | – | –
KGLSGGFGSRSLYSLGGVRSLNVA [KRT71] | 2.58 ± 0.26 | 2.41 ± 0.39 | – | –
NGDGAFLHDNHEQMPTEIEFPESR [ZNF649] | 5.31 ± 0.36 | 5.19 ± 0.45 | – | –
ALARNLLVDGETGESFPAQVPSGE [NFE2L1] | 4.79 ± 0.45 | 4.5 ± 0.61 | – | –
FPHPLWLRDTYKLWVPQPPPRTIK [PWWP2B] | 2.33 ± 0.17 | 2.71 ± 0.33 | – | –
FSTILHLLLGSPHPAATALHAELC [LPCAT4] | 3.14 ± 0.47 | 2.73 ± 0.53 | – | –
RLPFLSAFERQQVENRVVEEAKGL [ZBED1] | 4.17 ± 0.14 | 4.2 ± 0.22 | – | –
GADREFIEARRRALKRFVNLVARH [SNX8] | 2.45 ± 0.15 | 2.64 ± 0.25 | – | –
LRVLPNLPCVVQEGAIVMARGRHV [PYCR3] | 2.63 ± 0.37 | 2.73 ± 0.22 | – | –
SRQIPAPQGAVLVQREKDLPNYNW [KISS1] | 3.78 ± 0.29 | 3.79 ± 0.14 | – | –
VIDKETIDLLAFTSVAELELLGLE [SDE2] | 2.27 ± 0.52 | 2.73 ± 0.48 | – | –
DLVRLLQNVARIPEFELLWKDIIH [INTS3] | 2.61 ± 0.65 | 2.15 ± 0.19 | – | –
